What was measured:
[1] = target: recombinant full-length murine VDAC1 (murine) (UniProt Q60932)
[2] = target: recombinant full-length murine VDAC1 (murine) (UniProt Q60932); remark: listed apart in the source

Chain of recombinant full-length murine VDAC1 (murine) (Q60932 14-296): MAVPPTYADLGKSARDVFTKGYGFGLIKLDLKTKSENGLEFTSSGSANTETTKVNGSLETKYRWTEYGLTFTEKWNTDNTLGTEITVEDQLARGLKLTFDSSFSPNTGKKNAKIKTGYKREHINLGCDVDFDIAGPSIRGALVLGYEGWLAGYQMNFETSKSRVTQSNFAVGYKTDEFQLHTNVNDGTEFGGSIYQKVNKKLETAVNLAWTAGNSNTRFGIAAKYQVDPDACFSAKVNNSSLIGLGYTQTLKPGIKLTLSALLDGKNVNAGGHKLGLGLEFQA

inhibition of channel conductance of bilayer-reconstituted VDAC1 [1] [%]	Substance	survival of mESC-derived SOD1^G93A-expressing motor neurons with the (1-20)-N-Ter-Antp peptide, 10 μM, 96 h [2] [fold]
40	human mutant SOD1^G85R (enzyme)	
57	human mutant SOD1^G93A (enzyme)	2

From article PMC6702328, “A VDAC1-Derived N-Terminal Peptide Inhibits Mutant SOD1-VDAC1 Interactions and Toxicity in the SOD1 Model of ALS” (Frontiers in Cellular Neuroscience, 2019)
